Measured values published in the supplement of paper PMC12455559.
± gives the standard deviation of the averaged measurements.

Key:
[1] = melting temperature (DSF); higher = more thermostable
Protocol: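 Candidate PET hydrolases were expressed in E. coli C41(DE3) in 2 mL autoinduction cultures in 24-deep-well plates, Ni-bead purified and released by SUMO protease cleavage on an OT-2 robot. Yield per well was measured by BCA; values below 25 ug (0.1 mg/mL) are below the detection threshold. Melting temperature was measured by differential scanning fluorimetry with Sypro Orange, ramping from 25 C at 0.3 C/step.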

[2] = PET hydrolysis, aromatic products released after 48 h (umol product/mg enzyme); higher = more PET depolymerization activity
Protocol: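 HTP-purified, SUMO-cleaved, tagless PET hydrolase candidates (5 ug, 1.43 mg/g PET) were incubated 48 h without shaking with 3.5 mg amorphous PET film (aFilm) or crystalline PET powder (cryPow) in 0.5 mL buffer: NaCitrate pH 4.5/5.5, NaPhosphate pH 6.5/7.5, glycine pH 8.5. Incubation was at 40 or 60 C. Aromatic products (TPA, MHET, BHET) in the supernatant were quantified by UV absorbance at 260/280 nm relative to buffer blanks and expressed per mg enzyme. LCC-ICCG was the positive control on every plate.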

[3] = purified protein yield per well (BCA); higher = higher soluble expression
Summary of the method: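 Candidate enzymes were expressed in E. coli C41(DE3) in 2 mL autoinduction cultures with 100 µg/mL kanamycin, at 37 °C for 2 h and then 18 °C for 40 h. Cells were lysed, and protein was bound to Ni-charged magnetic beads and released by SUMO protease cleavage on an OT-2 robot. The read-out is purified protein yield per well, measured with the Pierce Rapid Gold BCA kit. Values below 25 ug (0.1 mg/mL) are below the detection threshold.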

[4] = substrate: cryPow, 40 °C, pH 4.5
[5] = substrate: cryPow, 40 °C, pH 5.5
[6] = substrate: cryPow, 40 °C, pH 6.5
[7] = substrate: cryPow, 40 °C, pH 7.5
[8] = substrate: cryPow, 60 °C, pH 4.5
[9] = substrate: cryPow, 60 °C, pH 5.5
[10] = substrate: cryPow, 60 °C, pH 6.5
[11] = substrate: cryPow, 60 °C, pH 7.5
[12] = substrate: cryPow, 40 °C, pH 8.5
[13] = substrate: cryPow, 60 °C, pH 8.5
[14] = substrate: aFilm, 40 °C, pH 4.5
[15] = substrate: aFilm, 40 °C, pH 5.5
[16] = substrate: aFilm, 40 °C, pH 6.5
[17] = substrate: aFilm, 40 °C, pH 7.5
[18] = substrate: aFilm, 60 °C, pH 4.5
[19] = substrate: aFilm, 60 °C, pH 5.5
[20] = substrate: aFilm, 60 °C, pH 6.5
[21] = substrate: aFilm, 60 °C, pH 7.5

| Sequence | melting temperature [1] | PET hydrolysis [2, 4] | PET hydrolysis [2, 5] | PET hydrolysis [2, 6] | PET hydrolysis [2, 7] | PET hydrolysis [2, 8] | PET hydrolysis [2, 9] | PET hydrolysis [2, 10] | PET hydrolysis [2, 11] | purified protein yield per well [3] | PET hydrolysis [2, 12] | PET hydrolysis [2, 13] | PET hydrolysis [2, 14] | PET hydrolysis [2, 15] | PET hydrolysis [2, 16] | PET hydrolysis [2, 17] | PET hydrolysis [2, 18] | PET hydrolysis [2, 19] | PET hydrolysis [2, 20] | PET hydrolysis [2, 21] | PET hydrolysis ([2]; substrate: aFilm, 40 °C, pH 8.5) | PET hydrolysis ([2]; substrate: aFilm, 60 °C, pH 8.5) |
| --- | --- | --- | --- | --- | --- | --- | --- | --- | --- | --- | --- | --- | --- | --- | --- | --- | --- | --- | --- | --- | --- | --- |
| AADNPYQRGPDPTPASVSANRGTFATTQVAVAAGNGFGGGVIYYPTDTSQGQFGAIAVVPGYTATWAAEGAWMGHWLASFGFVVIGIDTNNRNDWDTARGTQLLAALDYLTQRSSVRDRVDATRTAVMGHSMGGGGAASASLQRPSLKASIGLAPASFSQNLTTTRVPTMLLSGQNDTTITPASVVNLYNGIPASVEKAYLELSGAGHGFPTSNNSTMMRNVIPWFKVFVDSDTRYTQFLCPLANWSGIRTYQSTCPLVPSTPPTSTTTSTTTSTTTSTTTTTTPQPVGACNATYRTTNSWPGGYQGEVTVTAGESGVNGWTTRWTLGSGQTVTQVWNGTLTVDGSTASVRNAAYNGSLPAGGSAAFGFIGGGTPPTSLTCTSP [ESM023] | 55 C | < 3 | < 3 | < 3 | 5 | < 3 | < 3 | < 3 | < 3 | 221 µg | – | – | – | – | – | – | – | – | – | – | – | – |
| AAGYERGPNPTSSALEATRGPFSVASTNVSSLSASGFGGGTIYYPTDTSQGTFGGVVIAPGYTASKSSMAWLAERLASHGFVVFNIDTITRSDQPDSRGRQILAAADHLAEESSSTVRRRLDASRIGVMGHSMGGGGTLAAADSRPSLKAAVPLTPWHLDKSWGNVRVPTMIIGAENDTIAAVGSHSEPFYNSLSAAPEKAYLELNGASHFAPNSDNDTIAKYGISWMKRFVDEDTRYDQFLCPAPGRSTTIEEYRSSCPHS [DP086] | 39.1 C | – | < 3 | < 3 | < 3 | – | < 3 | < 3 | < 3 | 90 µg | < 3 | < 3 | – | – | – | – | – | – | – | – | – | – |
| AANPYERGPAPTAASIAATTGPFAVASVSVPRGNGFGGGVIYYPTSTSQGTFGGVAISPGLNGTWAGIAWLGPRLASQGFVIFGIETNNLNDSPASRGTQLLAALDFLTRSSSVRTRVDASRLAVAGHSMGGGGALSAALQRPSLQAAIGNAPHLPSGSLATDRVPTLIYAMQNDTLVTPSRLTSLYNSMPATTERAYIEVAGAGHNYIGQPSTTLARTMIPWLKIFVDNDARYSQFLCPLSNQSGISQYRNSCPLISTTTLSTGVDSTSGLAVR [ESM157] | 61 C | < 3 | 17.5 ± 2.1 | 50 | 69.5 ± 3.5 | < 3 | 3 | 7.5 ± 0.71 | 14.5 ± 0.71 | 313 µg | – | – | < 3 | < 3 | < 3 | < 3 | < 3 | < 3 | < 3 | < 3 | – | – |
| AANPYERGPAPTDAVLEASRGPFATTSYSVSGLSVTGFGGGVVYYPTSTSEGTFGAIAISPGYTATWSSLSWLGPRIASHGFVVIGIETNTLLDQPDSRGRQLLAALDYLVQRSSVRGRIDAGRLAVAGHSMGGGGTLEAAAARPSLQAAVPLAPWNLDKTWSGVTVPTLIVGGESDSVAPVASHSVPFYNSIPASSEKAYLELNGASHFFPQSVNTPTAKQMVAWLKRFVDNDTRYEQFLCPGPSGLAIEEYRNTCPSS [TEP018] | 40.6 C | < 3 | < 3 | < 3 | < 3 | < 3 | < 3 | < 3 | < 3 | 65.6 µg | – | – | – | – | – | – | – | – | – | – | – | – |
| AANPYERGPDPTDAILEAARGPFETSRTEVPALSVTGFGGGTIYYPATTSAGTFGGVAVAPGYTADRTSLAWLAERLASHGFVVFNIDTLTRLDQPDSRGRQLLAALDYLTQRSSVRGRLDAGRLGVMGHSMGGGGTLEAARDRPSLQAAVPLTPWDLTKIWSGVRVPTMIVGAEADTIAPVASHAEPFYQSLPSSPGKAYLELNNATHFAPNVPDTTIGKYVVAWMKRFVDDDTRYTRFLCPGPSGGLTVEEYRSTCPFS [TEP194] | 50.8 C | 5 | 8.5 ± 0.71 | 7 | 1.5 ± 2.1 | 3.5 ± 0.71 | 7 | 3.5 ± 0.71 | < 3 | 325 µg | – | – | < 3 | < 3 | < 3 | < 3 | < 3 | < 3 | 2 ± 2.8 | < 3 | – | – |
| AANPYQRGPAPTAASVAAVTGPFATASVSVPRGNGFGGGVIYYPTDTSQGTFGGLAISPGLNGTWPGIAWLGSRLASQGFIVFGIETNNLNDSPTSRGTQLLAALDYLAQRSSVRSRLDPGRLAVAGHSMGGGGALDAALRRPSLKAAIGNAPYLPSNTLAGNRVPTLIYAMQNDTLVPPSRLTSLYNTIPATTERAYLEITGAGHNYIGQPSTTLARTMIPWLKIFIDNDTRFSQFLCPLADQSGIRQYRSSCPLVPATTRALTAAAG [DP043] | 67.3 C | – | 12 | 39 | 96 | – | 7 | 62 | 98 | 92 µg | 115 | 107 | – | – | – | – | – | – | – | – | – | – |
| AASPYERGPDPTEQTITAERGPFQVATATVPANSASGFNRGTIYYPTDTSQGTFGAVAIIPGFIEPESTMSWYGPRLASQGFVVFTLEPFSVLNFPDDRANQLLAALDYLTGSSSVRSRVDASRLAVMGHSMGGGGTLRAAEMRPSLQAAIPLAPWHLHGDWRNVRVPTMIQAADNDFIAGVGNHAQPFYQNLTNAPEKAYLLFENYGHMSWISANTPIAKYSIAWLKRYVDDDTRYSKFLCPAPGAPSSTFQEYRHTCPD [DP044] | 69.4 C | – | < 3 | < 3 | < 3 | – | – | – | – | 28 µg | < 3 | – | – | – | – | – | – | – | – | – | – | – |
| ADLLSQGRPATASSTEKESTPASAAVDGDTGTRWSSTFGDPQWLQVDLGATATLSRIVLRWEAAYARTFRIQTSDDGTAWTTVHSTTTGAGGVQTLDVNGTGRYVRLHGTQRGTLYGYSLWEFQVYGSGDGTPPDGTIPDPTTASLEAAAGPLPTAAYTVPSPSGYGSGTVTYPTSGGAYPGVVLMPGYQGTQENLRWLAPRLASWGFVVLNVGTTTLLDDPASRGRQISAAGIQLLALGGTSGNPLSGKLDGTLGAVGHSMGGGGVMAALRDDPRFRAGVPTAPYYPNMNFSQVTDPTFFLTCQSDPVAHGNTYAVPWYTTMSRAEKLYVEVPGDHLCPMTGYGDKARQGKWIVSFLSLWLRADTRFGPFLCGPAREADKNNTALVTRWMDTCPF [TEP160] | 68.5 C | < 3 | < 3 | < 3 | < 3 | – | – | – | – | 31 µg | – | – | – | – | – | – | – | – | – | – | – | – |
| ADLLSQGRPVTASSTENASTPASAAVDGNTGTRWSSAFSDPQWLTVDLGTTATISRVVLRWETAYARRFQIQTSDDGTAWTTIHSATAGTGGVQTLDVTGSGRYVRVHGTQRGTAYGYSLWEFQVYGTRGTTPGEGIPDPSTASLEAAAGPLTTATYTVPDPSGYGSGTVTYPTAGGSYPGVVLMPGYQGTQQNLQWLAPRLASWGFVVLNVGTNTLTDDPASRGRQITAAGTQLLALGAATGNPLSGKVNGTLGAVGHSMGGGGVMAALRDDARFRAGVPTAPYYPNGNFSGVTDPTFFLTCQSDPVAHGNSYALPWYNSMSQSEKLYIEVPGDHLCPMTGSGDKAKQGKWIVSFLSHWLRADTRFTPFLCGPAREADKNDPSLVTRWMDTCPL [TEP036] | 51.4 C | < 3 | < 3 | < 3 | < 3 | < 3 | < 3 | < 3 | < 3 | 230 µg | – | – | < 3 | < 3 | < 3 | < 3 | < 3 | < 3 | < 3 | < 3 | – | – |
| ADNPFQRGPDPTRASVAAQTGPFANASVSVPTGYGFNGGRIYYPTDTSQGTFGAIAISPGYTALFSAELAWMGPWLASHGFVVIGIETNSRNDFDTARGTQLLAALDYLTQQSPVRDRVDPNRLAVSGHSMGGGGALSAASRRSSLKAAVGITPYSPSSNLANDRVPTMIISGQADTVVTPSYALGLYNSLPATTESVYLEVAGGDHGFMVGRSNPVMIRTMLPFVKMFIDNDTRYSQFLCPLADSSGVVTYRSTCPLLPGAPTTPPTTPPTDSPGSAGEIVGTQSGRCIDVPNAARDNGTRVQLYDCNKQPNQSWTYTSNKQLQVYGDRCLDAAGSGNGAAVQIYSCHSQTNQQWNLNSNGTISNVQSGRCLDVWSTANGAQVQLYDCHGQTNQQFRLASRTR [DP061] | 59.8 C | – | 14 ± 2.8 | 20 ± 1.4 | 7.5 ± 5 | – | < 3 | < 3 | < 3 | 265 µg | 2 ± 2.8 | < 3 | – | < 3 | < 3 | < 3 | – | < 3 | < 3 | < 3 | < 3 | < 3 |
| ADNPFQRGPNPTVASVAATRGTFATAQTSVPAGNGFGGGVIYYPTDTSQGTFGGVAIVPGYSALFANEEAWMGPWLASFGFVVIGIETNSRTDSADARGTQLLAALDYLTQRSSVRDRVDPNRLSVVGHSAGGAGVLSALLRRPSLKAGVGLAPGSPVGNYDLYNDRVPTMFISGQRDTTVTQSYLNGLYSTLPATTPSAWVEITGVDHLFATRANTTEMRVLIPWLKIWVDNDTRYTQFLCPLADSSNISMYRNKCPYVPPGGSSPSPSASPSSSPSPSPSSSPSPSPSPSPSPSPSPSPSPTTSPSPPPPGACSAAYRTVNSWPGGYQGEVTVTAGGSAVNGWTVRWTLGSGQTITQLWNGTLSTSGSAVTVKNASFNGSIPASGSATFGFLATGTPSAPSLSCTSP [ESM007] | 59.2 C | < 3 | < 3 | < 3 | < 3 | < 3 | < 3 | < 3 | < 3 | 424 µg | – | – | – | – | – | – | – | – | – | – | – | – |
